Test results published in patent US7026443.

What was measured:
HLA-A*0301 (human) [1] = assay: competition with 125I-labeled standard peptide for purified HLA-A*0301, gel filtration
HLA-B*5101 (human) = assay: competition with 125I-labelled standard peptide for purified HLA, gel filtration
HLA-B*0702 (human) = assay: as above
HLA-B*3501 (human) = assay: as above
HLA-B*5401 (human) = assay: as above
HLA-B*5301 (human) = assay: as above
HLA-A*0301 (human) [2] = assay: competitive inhibition of 125I-labelled standard peptide binding to purified HLA, gel filtration
HLA-A*1101 (human) [3] = assay: as above
HLA-A*1101 (human) [4] = assay: competition with 125I-labelled standard peptide for purified HLA-A*1101, gel filtration

Which relative binding ratio (IC50 of standard peptide / IC50 of test peptide) (HLA-A*0301 (human) [1]) does the source give for TMLCMCCK (modifications not checked) [HPV18 E7 60-67 peptide TMLCMCCK] here?
Its relative binding ratio (IC50 of standard peptide / IC50 of test peptide) is 0.024.

For IPHAACHKCI (modifications not checked) [HPV18 E6 peptide … (position 60, 10 amino acids)], which binding affinity ratio (IC50 of standard peptide / IC50 of test peptide) (HLA-B*5101 (human)) is on record?
The binding affinity ratio (IC50 of standard peptide / IC50 of test peptide) was 0.0046.

What about the binding affinity ratio (IC50 of standard peptide / IC50 of test peptide) (HLA-B*0702 (human)) of the same binder?
The binding affinity ratio (IC50 of standard peptide / IC50 of test peptide) was 0.0065.

And the binding affinity ratio (IC50 of standard peptide / IC50 of test peptide) (HLA-B*3501 (human))?
The binding affinity ratio (IC50 of standard peptide / IC50 of test peptide) was 0.0001.

And the binding affinity ratio (IC50 of standard peptide / IC50 of test peptide) (HLA-B*5401 (human))?
The binding affinity ratio (IC50 of standard peptide / IC50 of test peptide) was 0.0005.

And the binding affinity ratio (IC50 of standard peptide / IC50 of test peptide) (HLA-B*5301 (human))?
The binding affinity ratio (IC50 of standard peptide / IC50 of test peptide) was 0.0001.

With LSFVCPWCA (modifications not checked) [HPV18 E7 94-102 peptide …] as the binder, how does the relative binding ratio (IC50 of standard peptide / IC50 of test peptide) (HLA-A*0301 (human) [1]) read?
Its relative binding ratio (IC50 of standard peptide / IC50 of test peptide) is 0.0005.

How did the binding affinity ratio (IC50 of standard peptide / IC50 of test peptide) (HLA-A*0301 (human) [2]) turn out when KSFLKGTPK (modifications not checked) [HPV18 E1 position 468 peptide …] was run?
Its binding affinity ratio (IC50 of standard peptide / IC50 of test peptide) is 0.0003.

And the binding affinity ratio (IC50 of standard peptide / IC50 of test peptide) (HLA-A*1101 (human) [3])?
Its binding affinity ratio (IC50 of standard peptide / IC50 of test peptide) is 0.0015.

What about the binding affinity ratio (IC50 of standard peptide / IC50 of test peptide) (HLA-A*1101 (human) [4]) of the same binder?
The binding affinity ratio (IC50 of standard peptide / IC50 of test peptide) was 0.0015.

How did the binding affinity ratio (IC50 of standard peptide / IC50 of test peptide) (HLA-A*0301 (human) [2]) turn out when LTTNIHPAK (modifications not checked) [HPV18 E1 position 571 peptide …] was run?
The binding affinity ratio (IC50 of standard peptide / IC50 of test peptide) was 0.091.

And the binding affinity ratio (IC50 of standard peptide / IC50 of test peptide) (HLA-A*1101 (human) [3])?
Its binding affinity ratio (IC50 of standard peptide / IC50 of test peptide) is 0.12.

NIHPAKDNR (modifications not checked) [HPV18 E1 position 574 peptide …] was tested. Which binding affinity ratio (IC50 of standard peptide / IC50 of test peptide) (HLA-A*0301 (human) [2]) did it give?
Its binding affinity ratio (IC50 of standard peptide / IC50 of test peptide) is 0.0005.

And the binding affinity ratio (IC50 of standard peptide / IC50 of test peptide) (HLA-A*1101 (human) [3])?
The binding affinity ratio (IC50 of standard peptide / IC50 of test peptide) was 0.0002.

With NSGQKKAKR (modifications not checked) [HPV18 E1 position 119 peptide …] as the binder, how does the binding affinity ratio (IC50 of standard peptide / IC50 of test peptide) (HLA-A*0301 (human) [2]) read?
The binding affinity ratio (IC50 of standard peptide / IC50 of test peptide) was 0.0005.

What about the binding affinity ratio (IC50 of standard peptide / IC50 of test peptide) (HLA-A*1101 (human) [3]) of the same binder?
The binding affinity ratio (IC50 of standard peptide / IC50 of test peptide) was 0.0002.

PPKLRSTAA (modifications not checked) [HPV31 E1 289 peptide … (B07 supermotif peptide)] was tested. Which binding affinity ratio (IC50 of standard peptide / IC50 of test peptide) (HLA-B*0702 (human)) did it give?
Its binding affinity ratio (IC50 of standard peptide / IC50 of test peptide) is 0.0014.

RIKLVVESSA (modifications not checked) [HPV18 E7 71-80 peptide …] was tested. Which relative binding ratio (IC50 of standard peptide / IC50 of test peptide) (HLA-A*0301 (human) [1]) did it give?
Its relative binding ratio (IC50 of standard peptide / IC50 of test peptide) is 0.0005.

Which results are given for WTYFDTYMR (modifications not checked) [HPV18 E1 position 536 peptide …]?
binding affinity ratio (IC50 of standard peptide / IC50 of test peptide) (HLA-A*0301 (human) [2]): 0.0005; binding affinity ratio (IC50 of standard peptide / IC50 of test peptide) (HLA-A*1101 (human) [3]): 0.012

Which results are given for CPEEKQRHL (modifications not checked) [HPV31 E6 111 …]?
relative binding ratio (IC50 of standard peptide / IC50 of test peptide) (HLA-B*5101 (human)): 0.0074; relative binding ratio (IC50 of standard peptide / IC50 of test peptide) (HLA-B*5301 (human)): 0.0006

Which results are given for LILALLRYK (modifications not checked) [HPV18 E1 position 281 peptide …]?
binding affinity ratio (IC50 of standard peptide / IC50 of test peptide) (HLA-A*0301 (human) [2]): 0.27; binding affinity ratio (IC50 of standard peptide / IC50 of test peptide) (HLA-A*1101 (human) [3]): 0.18

GPKATLQDI (modifications not checked) [HPV18 E7 peptide … (position 3, 9 amino acids)] was tested. Which binding affinity ratio (IC50 of standard peptide / IC50 of test peptide) (HLA-B*5101 (human)) did it give?
The binding affinity ratio (IC50 of standard peptide / IC50 of test peptide) was 0.0001.

What about the binding affinity ratio (IC50 of standard peptide / IC50 of test peptide) (HLA-B*3501 (human)) of the same binder?
Its binding affinity ratio (IC50 of standard peptide / IC50 of test peptide) is 0.0001.

What about the binding affinity ratio (IC50 of standard peptide / IC50 of test peptide) (HLA-B*5401 (human)) of the same binder?
The binding affinity ratio (IC50 of standard peptide / IC50 of test peptide) was 0.0002.

What about the binding affinity ratio (IC50 of standard peptide / IC50 of test peptide) (HLA-B*5301 (human)) of the same binder?
Its binding affinity ratio (IC50 of standard peptide / IC50 of test peptide) is 0.0001.

How did the relative binding ratio (IC50 of standard peptide / IC50 of test peptide) (HLA-A*0301 (human) [1]) turn out when QLFLNTLSF (modifications not checked) [HPV18 E7 88-96 peptide …] was run?
Its relative binding ratio (IC50 of standard peptide / IC50 of test peptide) is 0.0005.

Which results are given for QVLHVLKRK (modifications not checked) [HPV18 E1 position 80 peptide …]?
binding affinity ratio (IC50 of standard peptide / IC50 of test peptide) (HLA-A*0301 (human) [2]): 0.0028; binding affinity ratio (IC50 of standard peptide / IC50 of test peptide) (HLA-A*1101 (human) [3]): 0.002

How did the binding affinity ratio (IC50 of standard peptide / IC50 of test peptide) (HLA-A*0301 (human) [2]) turn out when KLRAGQNHR (modifications not checked) [HPV18 E1 position 647 peptide …] was run?
Its binding affinity ratio (IC50 of standard peptide / IC50 of test peptide) is 0.3.

And the binding affinity ratio (IC50 of standard peptide / IC50 of test peptide) (HLA-A*1101 (human) [3])?
The binding affinity ratio (IC50 of standard peptide / IC50 of test peptide) was 0.0013.

And the binding affinity ratio (IC50 of standard peptide / IC50 of test peptide) (HLA-A*1101 (human) [4])?
The binding affinity ratio (IC50 of standard peptide / IC50 of test peptide) was 0.0013.

For QVLHVLKRK (modifications not checked) [HPV18 E1 80-88 peptide …], which binding affinity ratio relative to standard peptide (IC50 standard / IC50 test) (HLA-A*0301 (human) [1]) is on record?
The binding affinity ratio relative to standard peptide (IC50 standard / IC50 test) was 0.0028.

Which results are given for DPTRRPYKL (modifications not checked) [HPV18 E6 peptide … (position 6, 9 amino acids)]?
binding affinity ratio (IC50 of standard peptide / IC50 of test peptide) (HLA-B*5101 (human)): 0.0001; binding affinity ratio (IC50 of standard peptide / IC50 of test peptide) (HLA-B*0702 (human)): 0.0001; binding affinity ratio (IC50 of standard peptide / IC50 of test peptide) (HLA-B*3501 (human)): 0.0001; binding affinity ratio (IC50 of standard peptide / IC50 of test peptide) (HLA-B*5401 (human)): 0.0002; binding affinity ratio (IC50 of standard peptide / IC50 of test peptide) (HLA-B*5301 (human)): 0.0001
